As a reminder, the pEC50 is −log10 of the EC50, conventionally taken in molar units.

Among the data in PMC10653093 are EC50 values, retold here.

pEC50: −log10 of the molar value.

The assay deals with Recombinant human heterodimeric S100A8/A9 (human) (UniProt P05109). In words: ELISA.
Chain of UniProt P05109 (P05109 whole entry, chain 1 of 2): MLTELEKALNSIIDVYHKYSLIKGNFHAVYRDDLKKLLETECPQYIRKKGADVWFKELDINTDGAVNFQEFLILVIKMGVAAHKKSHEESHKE
Chain of UniProt P05109 (P06702 whole entry, chain 2 of 2, further chain): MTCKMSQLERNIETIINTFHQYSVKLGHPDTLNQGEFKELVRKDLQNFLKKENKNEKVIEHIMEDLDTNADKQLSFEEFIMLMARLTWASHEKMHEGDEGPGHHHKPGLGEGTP

For “recombinant soluble GPIbα (His-17-Leu505) (domain or fragment)”, the pEC50 is 6.89.
